Earlier results as cited in paper PMC5487894.
Where two headings read alike, the source gives them in different places. One block for each substance: values may come before it.

Key:
[1] = target: Rab5 (Homo sapiens) (UniProt P20339)
[2] = target: CDC12 20-40 (Schizosaccharomyces pombe) (UniProt Q10059)
[3] = target: Rac (Homo sapiens) (UniProt P63000)
[4] = target: Rac (Homo sapiens) (UniProt P63000); remark: listed apart in the source

UniProt Q10059, sequence (Q10059 20-40): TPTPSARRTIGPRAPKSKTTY
UniProt P20339, sequence (P20339 whole entry): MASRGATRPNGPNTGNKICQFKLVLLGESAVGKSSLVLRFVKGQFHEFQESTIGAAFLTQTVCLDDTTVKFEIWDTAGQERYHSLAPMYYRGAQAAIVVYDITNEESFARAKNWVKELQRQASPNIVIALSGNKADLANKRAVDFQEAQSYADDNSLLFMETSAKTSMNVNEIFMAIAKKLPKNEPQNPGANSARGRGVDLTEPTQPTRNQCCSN

Kd [1]: 900 nM
Substance: APPL1 BAR-PH (from UniProt Q9UKG1)

Kd [2]: 2 nM
Substance: CDC15 F-BAR (from UniProt Q09822)

Kd [3]: 3000 nM
Kd [4]: 20000 nM
Substance: IRSp53 RCB domain (from UniProt Q9UQB8)
